Several values for one entry are separate records, joined by “and”; a condition that tells them apart may be missing. Equal values may be shown once. *1 amine or outer side, *2 acyl side, *3 side chain or, on linkers, in order; H or OH if unused. Primed or numbered codes have the meaning given here. [ ]: non-standard residue; d: D form. Cys(Me) = CSC[C@H](N[*:1])C(=O)[*:2]; αMeF = C[C@](N)(Cc1ccccc1)C(=O)O; Bz′ = not defined here; Ppa = not defined here; Sar = CNCC(=O)O Where only a bound is given, the exact number is not on record here.

As usually defined, the Kd is a measure of binding affinity in units of concentration. Low readings indicate a tighter complex, high ones a looser complex.

The target of assay [1] is T1, β-catenin (UniProt P35222 134-665, limits assumed, biotinylated in the SPR and plate assays).
T1 construct: also called beta catenin; biotinylated β-catenin
T1 sequence (looked up): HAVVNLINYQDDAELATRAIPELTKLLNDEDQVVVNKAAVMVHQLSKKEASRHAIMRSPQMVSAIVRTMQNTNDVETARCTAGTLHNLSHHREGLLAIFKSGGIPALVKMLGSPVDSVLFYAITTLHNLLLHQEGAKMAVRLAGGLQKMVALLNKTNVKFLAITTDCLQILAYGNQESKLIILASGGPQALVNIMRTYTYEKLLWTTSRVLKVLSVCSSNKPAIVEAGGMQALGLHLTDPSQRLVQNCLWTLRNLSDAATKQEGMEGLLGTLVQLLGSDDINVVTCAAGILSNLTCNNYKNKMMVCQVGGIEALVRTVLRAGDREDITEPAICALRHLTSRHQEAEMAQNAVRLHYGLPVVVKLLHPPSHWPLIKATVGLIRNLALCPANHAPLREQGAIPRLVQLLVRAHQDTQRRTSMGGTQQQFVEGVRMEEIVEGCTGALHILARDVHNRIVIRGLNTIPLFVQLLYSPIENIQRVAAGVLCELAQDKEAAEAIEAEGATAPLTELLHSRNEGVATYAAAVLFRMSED
Put plainly: competitive FP. Summed up:
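Competitive fluorescence polarization with inhibitor peptide serially diluted from 10 nM to 30 uM; polarization read at 470 nm excitation, 520 nm emission. Experiments performed three times.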

The target in assay [2] is T1, β-catenin. Put plainly: cell-based or functional assay.

B1: SEQ ID NO: 185 (peptide)
peptide: KWFLICFWE
HELM: PEPTIDE1{[ac].K.W.F.L.I.C.F.W.E}$PEPTIDE1,PEPTIDE1,2:R3-10:R3$$$V2.0
SMILES: CC[C@H](C)[C@@H]1NC(=O)[C@H](CC(C)C)NC(=O)[C@H](Cc2ccccc2)NC(=O)[C@H](Cc2c[nH]c3ccccc23)NC(=O)[C@@H](NC(C)=O)CCCCNC(=O)CC[C@@H](C(=O)O)NC(=O)[C@H](Cc2c[nH]c3ccccc23)NC(=O)[C@H](Cc2ccccc2)NC(=O)[C@H](CS)NC1=O
For B1, in the assay with β-catenin [1], the Kd was no more than 400 nM. In addition, in the assay with β-catenin [2], the “Wnt Reporter EC50” value was > 22500 nM and ≤ 30000 nM.

B2: SEQ ID NO: 207 (peptide)
peptide: KWFLICAWD
modifications: cyclo-H2N-K(G*)WFLICAWD*-COOH
Turning to B2, the Kd in the assay with β-catenin [1] is > 400 nM and ≤ 1000 nM. Also, the “Wnt Reporter EC50” value with β-catenin [2] is no more than 7500 nM.

B3: SEQ ID NO: 209 (peptide)
peptide: H-AWFLISFWG-OH
Consider B3, for which the Kd with β-catenin [1] is > 400 nM and ≤ 1000 nM. For the same molecule, the “Wnt Reporter EC50” value with β-catenin [2] was no more than 7500 nM.

B4: SEQ ID NO: 218 (peptide)
peptide: Ac-MWLLISFWG-OH
In turn, B4 came in with a Kd in the assay with β-catenin [1] of no more than 400 nM. In addition, the “Wnt Reporter EC50” value with β-catenin [2] is no more than 7500 nM.

B5: SEQ ID NO: 198 (peptide)
peptide: Ac-MWFLICFWG-OH
With B5, the Kd with β-catenin [1] was > 400 nM and ≤ 1000 nM. Also, in the assay with β-catenin [2], the “Wnt Reporter EC50” value is no more than 7500 nM.

B6: SEQ ID NO: 214 (peptide)
peptide: H-MWFLI[Cys(Me)]FWG-OH
Consider B6, for which, in the assay with β-catenin [1], the Kd was > 400 nM and ≤ 1000 nM. In addition, the “Wnt Reporter EC50” value with β-catenin [2] was no more than 7500 nM.

B7: SEQ ID NO: 212 (peptide)
peptide: H-MWFLIAAWG-OH
As for B7, the Kd in the assay with β-catenin [1] is > 400 nM and ≤ 1000 nM. In addition, the “Wnt Reporter EC50” value in the assay with β-catenin [2] was no more than 7500 nM.

B8: SEQ ID NO: 216 (peptide)
peptide: MWALISFWG
HELM: PEPTIDE1{[ac].M.W.[Cha].L.I.S.F.W.G}$$$$V2.0
SMILES: CC[C@H](C)[C@H](NC(=O)[C@H](CC(C)C)NC(=O)[C@H](CC1CCCCC1)NC(=O)[C@H](Cc1c[nH]c2ccccc12)NC(=O)[C@H](CCSC)NC(C)=O)C(=O)N[C@@H](CO)C(=O)N[C@@H](Cc1ccccc1)C(=O)N[C@@H](Cc1c[nH]c2ccccc12)C(=O)NCC(=O)O
Turning to B8, the Kd with β-catenin [1] is > 400 nM and ≤ 1000 nM. In addition, the “Wnt Reporter EC50” value with β-catenin [2] is no more than 7500 nM.

B9: SEQ ID NO: 191 (peptide)
peptide: MWFLICAWD
HELM: PEPTIDE1{[O=C(CCCN[*:1])[*:2]].M.W.F.L.I.C.A.W.D}$PEPTIDE1,PEPTIDE1,1:R1-10:R3$$$V2.0
SMILES: CC[C@H](C)[C@@H]1NC(=O)[C@H](CC(C)C)NC(=O)[C@H](Cc2ccccc2)NC(=O)[C@H](Cc2c[nH]c3ccccc23)NC(=O)[C@H](CCSC)NC(=O)CCCNC(=O)C[C@@H](C(=O)O)NC(=O)[C@H](Cc2c[nH]c3ccccc23)NC(=O)[C@H](C)NC(=O)[C@H](CS)NC1=O
With B9, the Kd in the assay with β-catenin [1] was > 400 nM and ≤ 1000 nM. Further, the “Wnt Reporter EC50” value with β-catenin [2] was > 7500 nM and ≤ 15000 nM.

B10: SEQ ID NO: 199 (peptide)
peptide: KWFLISFWE
HELM: PEPTIDE1{[ac].K.W.F.L.I.S.F.W.E}$PEPTIDE1,PEPTIDE1,2:R3-10:R3$$$V2.0
SMILES: CC[C@H](C)[C@@H]1NC(=O)[C@H](CC(C)C)NC(=O)[C@H](Cc2ccccc2)NC(=O)[C@H](Cc2c[nH]c3ccccc23)NC(=O)[C@@H](NC(C)=O)CCCCNC(=O)CC[C@@H](C(=O)O)NC(=O)[C@H](Cc2c[nH]c3ccccc23)NC(=O)[C@H](Cc2ccccc2)NC(=O)[C@H](CO)NC1=O
Consider B10, for which the Kd with β-catenin [1] is > 400 nM and ≤ 1000 nM. In addition, the “Wnt Reporter EC50” value with β-catenin [2] was no more than 7500 nM.

B11: SEQ ID NO: 217 (peptide)
peptide: MWGLISFWG
HELM: PEPTIDE1{[ac].M.W.[O=C([C@@H](N[*:1])C1CCCCC1)[*:2]].L.I.S.F.W.G}$$$$V2.0
SMILES: CC[C@H](C)[C@H](NC(=O)[C@H](CC(C)C)NC(=O)[C@@H](NC(=O)[C@H](Cc1c[nH]c2ccccc12)NC(=O)[C@H](CCSC)NC(C)=O)C1CCCCC1)C(=O)N[C@@H](CO)C(=O)N[C@@H](Cc1ccccc1)C(=O)N[C@@H](Cc1c[nH]c2ccccc12)C(=O)NCC(=O)O
notes: also called Hit 1
For B11, the dissociation constant Kd in the assay with β-catenin [1] was no more than 400 nM. For the same molecule, the “Wnt Reporter EC50” value with β-catenin [2] was no more than 7500 nM.

B12: SEQ ID NO: 223 (peptide)
peptide: {Bz′}-MWILISFWG-OH
In the assay with β-catenin [1], B12 registered a Kd of no more than 400 nM. In the assay with β-catenin [2], the “Wnt Reporter EC50” value was no more than 7500 nM.

B13: SEQ ID NO: 188 (peptide)
peptide: KWILISAWE
HELM: PEPTIDE1{[ac].K.W.I.L.I.S.A.W.E}$PEPTIDE1,PEPTIDE1,2:R3-10:R3$$$V2.0
SMILES: CC[C@H](C)[C@@H]1NC(=O)[C@H](CC(C)C)NC(=O)[C@H]([C@@H](C)CC)NC(=O)[C@H](Cc2c[nH]c3ccccc23)NC(=O)[C@@H](NC(C)=O)CCCCNC(=O)CC[C@@H](C(=O)O)NC(=O)[C@H](Cc2c[nH]c3ccccc23)NC(=O)[C@H](C)NC(=O)[C@H](CO)NC1=O
For B13, the Kd in the assay with β-catenin [1] was > 10000 nM and ≤ 30000 nM. For the same molecule, the “Wnt Reporter EC50” value with β-catenin [2] is no more than 7500 nM.

B14: SEQ ID NO: 225 (peptide)
peptide: MWILISFWG
HELM: PEPTIDE1{[CC(C)(C)C(=O)[*:2]].M.W.I.L.I.S.F.W.G}$$$$V2.0
SMILES: CC[C@H](C)[C@H](NC(=O)[C@H](CC(C)C)NC(=O)[C@@H](NC(=O)[C@H](Cc1c[nH]c2ccccc12)NC(=O)[C@H](CCSC)NC(=O)C(C)(C)C)[C@@H](C)CC)C(=O)N[C@@H](CO)C(=O)N[C@@H](Cc1ccccc1)C(=O)N[C@@H](Cc1c[nH]c2ccccc12)C(=O)NCC(=O)O
As for B14, the Kd with β-catenin [1] was > 400 nM and ≤ 1000 nM. Also, the “Wnt Reporter EC50” value with β-catenin [2] is no more than 7500 nM.

B15: SEQ ID NO: 204 (peptide)
peptide: KWGLISAWD
HELM: PEPTIDE1{K.W.[O=C([C@@H](N[*:1])C1CCCCC1)[*:2]].L.I.S.A.W.D}$PEPTIDE1,PEPTIDE1,1:R3-9:R3$$$V2.0
SMILES: CC[C@H](C)[C@@H]1NC(=O)[C@H](CC(C)C)NC(=O)[C@H](C2CCCCC2)NC(=O)[C@H](Cc2c[nH]c3ccccc23)NC(=O)[C@@H](N)CCCCNC(=O)C[C@@H](C(=O)O)NC(=O)[C@H](Cc2c[nH]c3ccccc23)NC(=O)[C@H](C)NC(=O)[C@H](CO)NC1=O
Turning to B15, the Kd with β-catenin [1] was > 400 nM and ≤ 1000 nM. Moreover, the “Wnt Reporter EC50” value with β-catenin [2] was no more than 7500 nM.

B16: SEQ ID NO: 224 (peptide)
peptide: Ppa-MWILISFWG-OH
modifications: reading uncertain; also: printed as Ppa-MWILISFWG-COOH
notes: also called Hit 2
Regarding B16, the Kd with β-catenin [1] was no more than 400 nM. In addition, in the assay with β-catenin [2], the “Wnt Reporter EC50” value is no more than 7500 nM.

B17: SEQ ID NO: 221 (peptide)
peptide: Ac-MWILISFW[Sar]-OH
The molecule B17 gave a Kd with β-catenin [1] of no more than 400 nM. In the assay with β-catenin [2], the “Wnt Reporter EC50” value was no more than 7500 nM.

B18: SEQ ID NO: 133 (peptide)
peptide: H-MW[αMeF]LISFWG-OH
Turning to B18, in the assay with β-catenin [1], the Kd was no more than 400 nM. In addition, the “Wnt Reporter EC50” value with β-catenin [2] was greater than 30000 nM.

The values are drawn from US20260098059A1 (ENDOMET BIOSCIENCES, published 2026).
